# Experiment: soluble on expression in E. coli; label from the status in PepcDB or PDB records
row,Sequence,soluble on expression in E. coli
1,MVISLGDDITTVLKTVQQTLFALRDEHEAATRILEANLINSDSSEPSLPSEKMGLIDESLGKVMDGGDEASLLIMMDKLMQSYDVQLSKNHESIRLLRQENTWLLDELTTTQRKLQESERTVAHLEEERDHYKFQDSMNYLNSDFQHTTSVDATPMMVDTLQELGFGPEEEDQNNNQADQGCRSSSFSNPISNDYQLPTRLQTLQNLVIQYMEQGRFEVAIPLCKQALEDVVKVHGNVHLDVATMLNVLAIVYRNQENFKDAAIYLEKALSIRVQCCGENHHSVAATLNNLAIAYGKRGKYKESEPLCKRALEIRKNLLGPNHPDVAKQLTNLGIVTQQLEKYEETENYFKQALSIYNRAFPENHQNVIKTKNQLASVFLKQGKYQEAEEMYKNILSKVAITGNKPIWRIAEDREERQRNGIPKVDDESFNVNPTTVMDSNVMSTIKNLAAVYRKQGKEEAAGTLEEALGAKKQINGGADHTNSTASSVETSSAVAINPAQSGIKKRIMHFVGLNF,not soluble
2,MVKANVQAIDQLDAEQLGSGMVITDRQLSIVAVSEPTPRWLGFAKNELVGRPVGVLFSAEWSAALLDGIAEAVKKDGCWQGEARHVAKSGKAYTSWMNVYRLSGSEGEWLVWHFVEQTAMPPADRPTTSELLGVIYDSAPFAVVPVAADGTVQDWGLSAERLFGRRKEEAVGRPIWSLFRCGSQTWLPFPPKEQRCGEGMVQRRDGTSANVSYTVIPMLQADGYIVLVEDETKQKQKEAERRRQVELAKKIQQNLLTPLIQNEAVTMDAVYIPSDDLSGDIYACYQIDLYRYGVIVIDVMGHGISSALVSMLLRSLLRGLIVRVIDPVSVASELEKHVQTLFPDEANDIRHLFSMIYLVIDTKERKIEYTNAGHPAGLLVFDDGSVHELDKGGLAIGSPFSLPFEKGVIHYDKRARLLLYTDGILEEIDPSILQSIEKIRSCTQMCRHLPDKRFLERLISQGPPLVSPSDDICLLSITVHG,not soluble
3,MVKERRTELVEGFRHSVPYINAHRGKTFVIMLGGEAIEHENFSNIVNDIGLLHSLGIRLVVVYGARPQIDANLAEHHHEPVYHKQTRVTDAKTLELVKQAAGMLQLEITARLSMSLNNTPLQGAHINVVSGNFIIAQPLGVDDGVDYCHSGRIRRIDEEAIHRQLDSGAIVLMGPVAVSVTGESFNLTSEEIATQLAIKLKAEKMIGFCSSQGVYNQAGEIVSELFPNEAQARVEELEADEDYNSGTVRFLRGAVKACRSGVRRCHLISYQENGALLQELFSRDGIGTQIVMESAEQIRRATINDIGGILELISPLEQQGILVRRSREQLEMEIDKFTIIQRDNTTIACAALYPFPEEKIGEMACVAVHPDYRSSSRGEVLLERIAAQARQMGLSKLFVLTTRSIHWFQERGFTPVDIDLLPESKKQMYNYQRRSKVLMADLA,not soluble
4,MVKIAIITYSTYGHIDVLAQAVKKGVEAAGGKADIYRVEETLPDEVLTKMNAPQKPEDIPVATEKTLLEYDAFLFGVPTRFGNLPAQWSAFWDKTGGLWAKGSLNGKAAGIFVSTSSYGGGQESTVKACLSYLAHHGIIFLPLGYKNSFAELASIEEVHGGSPWGAGTLAGPDGSRTASPLELRIAEIQGKTFYETAKKLFPAKEAKPSTEKKTTTSDAAKRQTKPAAATTAEKKEDKGLLSCCTVM,soluble
5,MVKPKYSRVLIKLSGEALAGEKGVGIDIPTVQTIAQEIKEVHDSGIEIALVIGGGNLWRGEPASKAGMDRVQADYTGMLGTVMNALVMADALQHAGVDTRVQTAIAMQQVAEPYIRGRALRHLQKGRIVIFAAGVGSPYFSTDTTSALRAAEIEADAILMAKNGVDGVYNDDPRKNADAIKFNELTHMEVLKRGLKIMDSTASSLSMDNDIDLVVFNLNESGNIKRVIFGEQIGTTVTSRISDSEMAGDPLEHHHHHH,soluble
6,MVKRRNLLHFNNGARSERDLGDLVTKVFEKAAKKEPQPLYTFSLPLLSVQDEIRVYCKKKNIKIGYDTLFMEITFSADREAVDELIKHFFTENKLYLRGRFYLSAAVV,not soluble
7,MVKTMKWARIGDIIVLNREADDPEALLEMEGVRSVIRVEGIHGPLRRPRVRVLAGSGTETVHKENGCLFRIDLSRVMWSRGNINERARIPSLVEEGETVVDMFAGIGYFSIPVAVHSDPGRVYSVELNPDSFELLKSNITLNRVEGIIEPILGDCREVAPELDADRVIMGYVGRTHHFLDAAMECVRDGGVIHYHETAPEAIRFSRPLRRIERAAHPRRVSLLDKRVIKKYSPGVWHVVLDVRIH,soluble
8,MVLAIAGCIEAYRTGHDARHGPRVPWERRLSEEDYLARLAAGSVSYSRDVQPILDSRCVVCHGCYDAPCQLKLESFDGLERGASKTPVYDTTRLQATPPTRLFIDAENVQGWRSKGFFPVLNERGDSPEANLRDSLLFRMLELKKAHPLPVSGALPDTFDFRLDRTLNCPTVEEFDDFEDDHPEWGMPYGFPGLSEREHDIVVKWLREGGFAPPPAPVSAEAASAVAQWEAFLNGSSPKERLFARYVYEHLFLGHLHFRGLAPREFFRLVRSRTPPGEPIREIATTRPYDSPGPGEFYYRLRPVQQSIVAKTHMVYELDDARMRRYRELFLDPEYAVDRLPGYAAADAANPFKTFVAIPPRSRYRFLLDDAHFFFSGFMKGSVCRGQAALNVIQDRFWVAFTHPDADPVSNDAQFLADQAERLRLPAEKENSPGIGDIWYTYRALEEDYQAAKAAWLRAHGERGGTTLADLWDGDGDNRDALLTVFRHFDSASVERGLVGDTPLTGWVVDYPLLERIHYLLVAGFDVFGNVGHQLATRLYMDFMRMEAENNFLRFLPSSIRQAERARWYKGIGARINDLWQSPRWGMGGETLIDYRTGNPKQEFFDRVRAGFGKAAGRPDPFTGCGVEVEGCGEGGEPALPPVQASVERELRRLAFARGGGVAFLPELSYLRIRTGSGGAEDGWIYSLVKNTALENVSMLFLEEIRRTPADDTVTLVRGIVGSYPNFFFDLDAAEVGEFVDAILSVDGSKAFGRRLVERFGVRRSNPAFWRISDWFNRRYLEASPVTAGWLDLSRYDNPLEHHHHHH,not soluble
9,MVLAPFFEKAPSLIIAPDGSVLFECICNANPQPTVKWFLKDKELTGDRYVSKIKKMVGKFTVTLHIKNPTQEDQGVYKVTATNTHGSHSVEQQYIYKCTGKEVFKTLD,soluble
10,MVLFEKPGKENTRKTLEIAIQKASELSSKKLLIASATGYSARMALEMIPEDMKLVVVTHHAGFEEPDTQEFDEELRKLLKEKGHDVLTATHALSAGERSLRRKFGGIYPLEIIANTLRMFSEGVKVGVEITLMAADAGLVKTSELVVACGGTESGLDSAIVVKPANSPNLFDLKITEILCKPLIS,soluble
11,MVLIIVRTLLMRISIKMIPLAYLNHFRKEHMKSRIHWAALGLLAAFAAQAETVTIEHRLGKTTLEQKPQRVVVIGVGALDAIDSFGIEPVAVSKFDGTPDYLAKYKSDKYPSAGSLFEPDFETIYTQKPDLIVIGPRASKSYDELSKIAPTIVFAAEADQGYWESTQQQWRNLGKVFAIEPAVEAKIEQVDAQFKSIMQYNQQHKSDAMLVMSSGGNLTTFGANSRFSSVYKDFGFSETVPVSKESSHGDLISFEYIREHNPKTLLVVDRDKVVTKGETNIRQTFENDLVKATTAYKNGHIAYLDVNAWYIAISGVKATEQMVADMKASVGMQ,not soluble
12,MVLLSVFLATGCTDTEQQPDTTTITEPDTTTTAQSETSKLIVSTTTSLEDTGLLEEIEAAFEDKYPGVDVLVISGGTGIAIQYGERGDADILLTHDKSREEEFVNNGFGTNRTEIAYNYFWIVGPENDPAGINGLNATEAFTRIMEEGQNDSDQVKFASRGDDSGTHAREKKIWESTGVSYGEINSSGEWYIESGRGMGETLLLSNEQNAYTLTDSGTFLAYTNEGRIQIVPIVTAGDELLNVYAAMPVNPEKHPNVNYEGAQNFVDFLVSSEGQEIIGNFGREQYGEPLFTPISEGLPS,not soluble
13,MVLPPQNRLCNEVCLEAGQSPNSNELYLNSSELLKTELNNDINLCLVDFCERHNIDYRGMVNRLVTNNMYFFYIWGKYALSKA,not soluble
14,MVLVELFGFGPHLMVDGYEANPDRLRDAELIRRVLNELPEEMEMTKVLPPFVYSYGPGGEDGVTGVVIIAESHIAIHTFPKKRFLSVDIFSCKAFDMAKALKKLAEVFEIRRYETYMINRGKEFPKDPELARQIVLGEREYLEARVG,soluble

# Reference: the DeepSol protein solubility set
